Source: patent US20140044713A1 (KONINKLIJKE NEDERLANDSE AKADEMIE VAN WETENSCHAPPEN, published 2014)

B3: Frz6 (endogenous, LS174T cells) (receptor, human, UniProt O60353 19-706, looked up)
chain: HSLFTCEPITVPRCMKMAYNMTFFPNLMGHYDQSIAAVEMEHFLPLANLECSPNIETFLCKAFVPTCIEQIHVVPPCRKLCEKVYSDCKKLIDTFGIRWPEELECDRLQYCDETVPVTFDPHTEFLGPQKKTEQVQRDIGFWCPRHLKTSGGQGYKFLGIDQCAPPCPNMYFKSDELEFAKSFIGTVSIFCLCATLFTFLTFLIDVRRFRYPERPIIYYSVCYSIVSLMYFIGFLLGDSTACNKADEKLELGDTVVLGSQNKACTVLFMLLYFFTMAGTVWWVILTITWFLAAGRKWSCEAIEQKAVWFHAVAWGTPGFLTVMLLAMNKVEGDNISGVCFVGLYDLDASRYFVLLPLCLCVFVGLSLLLAGIISLNHVRQVIQHDGRNQEKLKKFMIRIGVFSGLYLVPLVTLLGCYVYEQVNRITWEITWVSDHCRQYHIPCPYQAKAKARPELALFMIKYLMTLIVGISAVFWVGSKKTCTEWAGFFKRNRKRDPISESRRVLQESCEFFLKHNSKVKHKKKHYKPSSHKLKVISKSMGTSTGATANHGTSAVAITSHDYLGQETLTEIQTSPETSMREVKADGASTPRLREQDCGEPASPAASISRLSGEQVDGKGQAGSVSESARSEGRISPKSDITDTGLAQSNNLQVPSSSEPSSLKGSTSLLVHPVSGVRKEQGGGCHSDT
notes: whole, on cells

Columns and labels:
[1] = target: T1, Frz7 (endogenous, LS174T cells) (human, UniProt O75084 33-574); assay: TAP (anti-FLAG, anti-HA) + mass spectrometry, bait stably expressed in LS174T cells, Exp 3-6
T1 construct: whole, on cells
Experimental: (§1) Left panel (Exps 1-7): HEK293T cells were transiently transfected, and LS174T cells were stably, transfected with the indicated tagged proteins. Right panel (Exps 8-9): HEK293T cells were incubated with the indicated tagged soluble proteins at 1 μg/ml. Sequential immunoprecipitation was performed by anti-FLAG and anti-HA antibodies and the associated complexes were analysed by mass spectrometry. Number of assigned spectra, number of unique peptides and the MASCOT Protein Score are given for selected identified proteins.

LRP5 (endogenous) = target: T2, LRP5 (endogenous) (human, UniProt O75197 32-1615); assay: TAP (anti-FLAG, anti-HA) + mass spectrometry, 293T cells incubated with the soluble tagged bait, Exp 9
T2 construct: whole, on cells
Experimental: as §1

LRP6 (endogenous) = target: T3, LRP6 (endogenous) (human, UniProt O75581 20-1613); assay: as above
T3 construct: whole, on cells
Experimental: as §1

[2] = target: T4, Lgr5-exo-Fc (leucine-rich-repeat exodomain of Lgr5, amino acids 1 to 546, human IgG-Fc fusion protein) (human, UniProt O75473 22-546); assay: SPR array imaging (IBIS MX96), Rspo1-FH captured on anti-FLAG, LGR5-Fc at 45, 23 and 11 nM, 1:1 discrete interaction model
T4 construct: range 1-546; also called LGR5-Fc; huLGR5-Fc; not shown: human IgG-Fc
T4 sequence (looked up): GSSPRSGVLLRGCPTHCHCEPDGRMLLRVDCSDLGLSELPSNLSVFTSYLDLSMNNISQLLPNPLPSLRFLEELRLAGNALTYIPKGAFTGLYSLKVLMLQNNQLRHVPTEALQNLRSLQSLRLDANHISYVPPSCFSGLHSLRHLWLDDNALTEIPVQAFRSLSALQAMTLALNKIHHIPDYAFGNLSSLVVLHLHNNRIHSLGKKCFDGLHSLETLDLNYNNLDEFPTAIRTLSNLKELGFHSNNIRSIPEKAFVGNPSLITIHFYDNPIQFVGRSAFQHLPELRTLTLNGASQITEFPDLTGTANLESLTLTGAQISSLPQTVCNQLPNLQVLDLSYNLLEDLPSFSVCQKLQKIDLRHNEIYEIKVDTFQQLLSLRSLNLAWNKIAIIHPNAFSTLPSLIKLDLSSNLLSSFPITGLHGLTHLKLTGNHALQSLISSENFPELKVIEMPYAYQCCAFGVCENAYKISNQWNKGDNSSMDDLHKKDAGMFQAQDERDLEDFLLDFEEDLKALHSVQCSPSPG
From the text: This allowed us to perform a binding experiment using Surface Plasmon Resonance array imaging.

[3] = target: T4, Lgr5-exo-Fc (leucine-rich-repeat …); assay: SPR array imaging (IBIS MX96), RSpo-1-FH captured on anti-Flag spots of decreasing density, 1:1 model, extrapolated to Rmax=0
From the text: FIG. 15: Rspondin1-Lgr5 interaction KD determination by Surface Plasmon Resonance array imaging. […] In IBIS-SPRint software (version 2) an exponential fitting routine y=a*ebx was used for extrapolating the values of KD and kd at Rmax=0 (arrows).
Method: IBIS-SPRinT 2.0. An array of anti-Flag spots with decreasing densities was printed on a preactivated sensor surface (IBIS Technologies, Enschede, the Netherlands) using a continuous flow microspotter (CFM) (Wasatch Microfluidics, Utah, US).

FLAG/HA-tagged Lgr4 = target: T5, FLAG/HA-tagged Lgr4 (human, UniProt Q9BXB1 25-951); assay: TAP (anti-FLAG, anti-HA) + mass spectrometry, bait stably expressed in LS174T cells, Exp 2
T5 construct: whole, on cells; also called Lgr4 bait; FH-tagged human Lgr4; not shown: FLAG/HA double tag
Experimental: as §1

Rspo1-Fc fusion protein = target: T6, Rspo1-Fc fusion protein (Homo sapiens (Human), UniProt Q2MKA7 21-263, limits assumed); assay: HEK293T cells transfected with the tagged Lgr, incubated with Rspo1-Fc, protein G immunoprecipitation, anti-FLAG Western blot
T6 construct: also called Rspondin1 IgFc fusion protein; not shown: Fc (IgFc) part
From the text: FIG. 7A: Rspondin1 binds to Lgr4, Lgr5 and Lgr6. […] Bottom: Input of tagged proteins.

[4] = target: B3; assay: TAP (anti-FLAG, anti-HA) + mass spectrometry, bait stably expressed in LS174T cells, Exp 7
Experimental: as §1

[5] = target: T1, Frz7 (endogenous, LS174T cells); assay: as above
Experimental: as §1

T3 sequence (O75581 20-1613): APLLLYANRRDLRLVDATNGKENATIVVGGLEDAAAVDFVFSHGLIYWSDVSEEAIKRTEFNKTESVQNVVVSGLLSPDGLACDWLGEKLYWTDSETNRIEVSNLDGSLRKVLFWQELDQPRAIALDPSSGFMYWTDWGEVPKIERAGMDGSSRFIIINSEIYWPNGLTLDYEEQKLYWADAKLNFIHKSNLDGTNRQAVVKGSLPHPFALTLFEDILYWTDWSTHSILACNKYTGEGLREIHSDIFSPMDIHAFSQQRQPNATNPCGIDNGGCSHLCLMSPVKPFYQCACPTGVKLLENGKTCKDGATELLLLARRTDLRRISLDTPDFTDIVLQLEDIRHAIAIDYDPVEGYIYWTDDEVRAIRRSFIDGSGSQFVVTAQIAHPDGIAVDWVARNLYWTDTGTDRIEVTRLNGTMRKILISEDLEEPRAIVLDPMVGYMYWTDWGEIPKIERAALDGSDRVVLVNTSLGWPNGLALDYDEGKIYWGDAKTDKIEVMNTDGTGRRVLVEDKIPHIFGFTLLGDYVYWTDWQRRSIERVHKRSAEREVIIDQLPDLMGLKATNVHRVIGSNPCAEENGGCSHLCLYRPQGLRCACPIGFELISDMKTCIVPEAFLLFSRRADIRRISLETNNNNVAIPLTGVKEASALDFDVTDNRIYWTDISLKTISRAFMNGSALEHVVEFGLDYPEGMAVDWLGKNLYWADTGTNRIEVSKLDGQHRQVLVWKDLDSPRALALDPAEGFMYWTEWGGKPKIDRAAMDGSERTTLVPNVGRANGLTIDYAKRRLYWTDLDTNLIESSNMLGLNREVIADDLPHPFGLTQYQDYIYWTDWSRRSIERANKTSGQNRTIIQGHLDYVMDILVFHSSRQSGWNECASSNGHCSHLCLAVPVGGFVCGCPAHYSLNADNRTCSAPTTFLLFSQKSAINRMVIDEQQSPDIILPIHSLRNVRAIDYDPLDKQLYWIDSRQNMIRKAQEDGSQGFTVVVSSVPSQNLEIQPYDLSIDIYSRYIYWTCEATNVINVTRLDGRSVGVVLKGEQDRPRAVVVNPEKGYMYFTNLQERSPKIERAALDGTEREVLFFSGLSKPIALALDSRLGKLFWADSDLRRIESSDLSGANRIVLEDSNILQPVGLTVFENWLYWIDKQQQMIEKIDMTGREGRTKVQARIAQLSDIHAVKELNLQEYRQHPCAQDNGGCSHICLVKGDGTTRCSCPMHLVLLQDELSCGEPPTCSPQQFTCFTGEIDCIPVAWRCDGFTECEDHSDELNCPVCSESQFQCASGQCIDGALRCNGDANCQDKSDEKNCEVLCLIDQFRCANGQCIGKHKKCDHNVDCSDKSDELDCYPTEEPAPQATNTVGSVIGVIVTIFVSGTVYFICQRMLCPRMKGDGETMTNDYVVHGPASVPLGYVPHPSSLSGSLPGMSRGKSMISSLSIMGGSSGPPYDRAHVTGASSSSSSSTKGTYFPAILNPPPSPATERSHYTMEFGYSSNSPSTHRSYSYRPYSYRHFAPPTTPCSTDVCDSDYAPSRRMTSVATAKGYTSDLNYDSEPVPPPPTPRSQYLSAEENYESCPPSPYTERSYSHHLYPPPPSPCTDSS
T2 sequence (O75197 32-1615): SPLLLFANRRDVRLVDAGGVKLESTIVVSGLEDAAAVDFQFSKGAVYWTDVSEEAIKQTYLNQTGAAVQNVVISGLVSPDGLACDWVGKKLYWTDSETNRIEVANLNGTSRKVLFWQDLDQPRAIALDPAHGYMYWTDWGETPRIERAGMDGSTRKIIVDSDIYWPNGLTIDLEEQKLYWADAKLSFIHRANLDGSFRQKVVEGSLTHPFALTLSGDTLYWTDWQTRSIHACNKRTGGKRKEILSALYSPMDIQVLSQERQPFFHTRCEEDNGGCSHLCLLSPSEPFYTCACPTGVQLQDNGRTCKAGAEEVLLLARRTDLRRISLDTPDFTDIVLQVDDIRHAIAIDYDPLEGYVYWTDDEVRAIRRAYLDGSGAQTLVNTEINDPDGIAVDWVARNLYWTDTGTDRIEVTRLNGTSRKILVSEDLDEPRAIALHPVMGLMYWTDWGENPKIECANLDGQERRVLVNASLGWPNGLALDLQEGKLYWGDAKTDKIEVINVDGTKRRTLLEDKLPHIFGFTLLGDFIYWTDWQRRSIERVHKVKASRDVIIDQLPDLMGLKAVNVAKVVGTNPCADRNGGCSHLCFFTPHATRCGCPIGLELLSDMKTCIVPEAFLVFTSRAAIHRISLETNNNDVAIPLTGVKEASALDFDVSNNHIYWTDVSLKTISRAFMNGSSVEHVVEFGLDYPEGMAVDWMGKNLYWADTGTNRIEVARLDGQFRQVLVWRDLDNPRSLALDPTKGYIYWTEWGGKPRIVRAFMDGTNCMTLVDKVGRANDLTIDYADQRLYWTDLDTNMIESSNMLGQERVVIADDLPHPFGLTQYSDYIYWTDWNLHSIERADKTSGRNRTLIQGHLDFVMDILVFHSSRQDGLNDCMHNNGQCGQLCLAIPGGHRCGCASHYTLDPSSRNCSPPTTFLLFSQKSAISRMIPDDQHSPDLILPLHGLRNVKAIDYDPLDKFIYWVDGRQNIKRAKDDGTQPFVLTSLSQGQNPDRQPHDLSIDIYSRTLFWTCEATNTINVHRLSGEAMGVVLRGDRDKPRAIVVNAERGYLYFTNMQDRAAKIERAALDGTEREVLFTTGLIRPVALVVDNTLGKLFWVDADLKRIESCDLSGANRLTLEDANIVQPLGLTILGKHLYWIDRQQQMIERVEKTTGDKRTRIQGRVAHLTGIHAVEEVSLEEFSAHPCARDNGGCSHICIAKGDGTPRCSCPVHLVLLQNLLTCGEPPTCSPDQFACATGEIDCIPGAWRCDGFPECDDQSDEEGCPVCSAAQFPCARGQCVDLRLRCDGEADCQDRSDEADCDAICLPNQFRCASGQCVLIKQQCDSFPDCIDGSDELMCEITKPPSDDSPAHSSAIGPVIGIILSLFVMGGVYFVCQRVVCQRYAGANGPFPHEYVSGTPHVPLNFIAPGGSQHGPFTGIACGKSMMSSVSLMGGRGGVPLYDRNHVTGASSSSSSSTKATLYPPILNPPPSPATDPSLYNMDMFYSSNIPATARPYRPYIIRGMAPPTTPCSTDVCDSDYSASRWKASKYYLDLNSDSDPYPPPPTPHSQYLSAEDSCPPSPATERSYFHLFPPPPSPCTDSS

B1: FLAG/HA-tagged Lgr5 (receptor, human, UniProt O75473 22-907, looked up)
chain: GSSPRSGVLLRGCPTHCHCEPDGRMLLRVDCSDLGLSELPSNLSVFTSYLDLSMNNISQLLPNPLPSLRFLEELRLAGNALTYIPKGAFTGLYSLKVLMLQNNQLRHVPTEALQNLRSLQSLRLDANHISYVPPSCFSGLHSLRHLWLDDNALTEIPVQAFRSLSALQAMTLALNKIHHIPDYAFGNLSSLVVLHLHNNRIHSLGKKCFDGLHSLETLDLNYNNLDEFPTAIRTLSNLKELGFHSNNIRSIPEKAFVGNPSLITIHFYDNPIQFVGRSAFQHLPELRTLTLNGASQITEFPDLTGTANLESLTLTGAQISSLPQTVCNQLPNLQVLDLSYNLLEDLPSFSVCQKLQKIDLRHNEIYEIKVDTFQQLLSLRSLNLAWNKIAIIHPNAFSTLPSLIKLDLSSNLLSSFPITGLHGLTHLKLTGNHALQSLISSENFPELKVIEMPYAYQCCAFGVCENAYKISNQWNKGDNSSMDDLHKKDAGMFQAQDERDLEDFLLDFEEDLKALHSVQCSPSPGPFKPCEHLLDGWLIRIGVWTIAVLALTCNALVTSTVFRSPLYISPIKLLIGVIAAVNMLTGVSSAVLAGVDAFTFGSFARHGAWWENGVGCHVIGFLSIFASESSVFLLTLAALERGFSVKYSAKFETKAPFSSLKVIILLCALLALTMAAVPLLGGSKYGASPLCLPLPFGEPSTMGYMVALILLNSLCFLMMTIAYTKLYCNLDKGDLENIWDCSMVKHIALLLFTNCILNCPVAFLSFSSLINLTFISPEVIKFILLVVVPLPACLNPLLYILFNPHFKEDLVSLRKQTYVWTRSKHPSLMSINSDDVEKQSCDSTQALVTFTSSSITYDLPPSSVPSPAYPVTESCHLSSVAFVPCL
notes: whole, on cells; also called Lgr5 bait; FH-tagged human Lgr5; not shown: FLAG/HA double tag
B1: no binding [1].

B2: double (FLAG-HA)-tagged version of human Rspo-1 (Rspo1-FH) (ligand)
chain: SRGIKGKRQRRISAEGSQACAKGCELCSEVNGCLKCSPKLFILLERNDIRQVGVCLPSCPPGYFDARNPDMNKCIKCKIEHCEACFSHNFCTKCKEGLYLHKGRCYPACPEGSSAANGTMECSSPAQCEMSEWSPWGPCSKKQQLCGFRRGSEERTRRVLHAPVGDHAACSDTKETRRCTVRRVPCPEGQKRRKGGQGRRENANRNLARKESKEAGAGSRRRKGQQQQQQQGTVGPLTSAGPA
notes: Used as HEK293T conditioned medium; also called huRSPO1-FH; not shown: FLAG-HA double tag
For B2, the binding result (LRP5 (endogenous)) was “no binding (tested: 1 µg/ml)”, the binding result (LRP6 (endogenous)) was “no binding (tested: 1 µg/ml)” and the Kd [2] was ~3 nM. For the same binder, the Kd [3] was 3.07 nM, the koff [3] was 0.000155 s⁻¹ and the kon [3] was 50400 M⁻¹ s⁻¹.

B3: no binding (FLAG/HA-tagged Lgr4).

B4: Lgr1 (receptor, not shown: small tags and cut ends)
chain: CHHRICHCSNRVFLCQESKVTEIPSDLPRNAIELRFVLTKLRVIQKGAFSGFGDLEKIEISQNDVLEVIEADVFSNLPKLHEIRIEKANNLLYINPEAFQNLPNLQYLLISNTGIKHLPDVHKIHSLQKVLLDIQDNINIHTIERNSFVGLSFESVILWLNKNGIQEIHNCAFNGTQLDELNLSDNNNLEELPNDVFHGASGPVILDISRTRIHSLPSYGLENLKKLRARSTYNLKKLPTLEKLVALMEASLTYPSHCCAFANWRRQISELHPICNKSILRQEVDYMTQARGQRSSLAEDNESSYSRGFDMTYTEFDYDLCNEVVDVTCSPKPDAFNPCEDIMGYNILRVLIWFISILAITGNIIVLVILTTSQYKLTVPRFLMCNLAFADLCIGIYLLLIASVDIHTKSQYHNYAIDWQTGAGCDAAGFFTVFASELSVYTLTAITLERWHTITHAMQLDCKVQLRHAASVMVMGWIFAFAAALFPIFGISSYMKVSICLPMDIDSPLSQLYVMSLLVLNVLAFVVICGCYIHIYLTVRNPNIVSSSSDTRIAKRMAMLIFTDFLCMAPISFFAISASLKVPLITVSKAKILLVLFHPINSCANPFLYAIFTKNFRRDFFILLSKCGCYEMQAQIYRTETSSTVHNTHPRNGHCSSAPRVTSGSTYILVPLSHLAQN
notes: Control lane of the Rspo1-Fc pull-down
B4: no binding (tested: ~1 µg/ml) (Rspo1-Fc fusion protein).

B5: tagged Frizzled5 (Frz5) (receptor, UniProt Q13467 27-585, looked up)
chain: ASKAPVCQEITVPMCRGIGYNLTHMPNQFNHDTQDEAGLEVHQFWPLVEIQCSPDLRFFLCSMYTPICLPDYHKPLPPCRSVCERAKAGCSPLMRQYGFAWPERMSCDRLPVLGRDAEVLCMDYNRSEATTAPPRPFPAKPTLPGPPGAPASGGECPAGGPFVCKCREPFVPILKESHPLYNKVRTGQVPNCAVPCYQPSFSADERTFATFWIGLWSVLCFISTSTTVATFLIDMERFRYPERPIIFLSACYLCVSLGFLVRLVVGHASVACSREHNHIHYETTGPALCTIVFLLVYFFGMASSIWWVILSLTWFLAAGMKWGNEAIAGYAQYFHLAAWLIPSVKSITALALSSVDGDPVAGICYVGNQNLNSLRGFVLGPLVLYLLVGTLFLLAGFVSLFRIRSVIKQGGTKTDKLEKLMIRIGIFTLLYTVPASIVVACYLYEQHYRESWEAALTCACPGHDTGQPRAKPEYWVLMLKYFMCLVVGITSGVWIWSGKTVESWRRFTSRCCCRPRRGHKSGGAMAAGDYPEASAALTGRTGPPGPAATYHKQVSLSHV
notes: whole, on cells; also called double-tagged Frizzled5; Frz5 bait; not shown: FLAG/HA tag
B5: no binding [4]; no binding [5].
